Measurements published in the RNAGym collection of RNA variant scans (doi:10.1093/molbev/msab373).

B1: Azoarcus group I ribozyme (parent)
chain: GUGCCUUGCGCCGGGAAACCACGCAAGGGAUGGUGUCAAAUUCGGCGAAACCUAAGCGCCCGCCCGGGCGUAUGGCAACGCCGAGCCAAGCUUCGGCGCCUGCGCCGAUGAAGGUGUAGAGACUAGACGGCACCCACCUAAGGCAAACGCUAUGGUGAAGGCAUAGUCCAGGGAGUGGCGAAAGUCACACAAACCGG

Variants of: B1
Experiment: reverse-splicing fitness (ratio to wild type); higher = more active; in vitro selection; Mg2+ level not given
Method in brief: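 An in vitro group I ribozyme library with randomized positions was T7-transcribed and gel-purified. In triplicate, 10 pmol RNA in EPPS pH 7.5 was reacted with 50 pmoles of a 30-nt RNA substrate for 1 h at 37 °C across several added MgCl2 levels (1–48 mM), then stopped with EDTA. Products were reverse transcribed from a substrate-complementary primer, PCR-amplified and sequenced (HiSeq 4000). Fitness is a variant's read proportion after selection over that before, normalised to wild type.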

**Q.** With C82G A111U A120G A145C C150U C169U U176A as the variant, how does the reverse-splicing fitness read?
**A.** 0.019

**Q.** For C82G A111U A120G A145C C150U C169U U176G, which reverse-splicing fitness is on record?
**A.** 0.00513

**Q.** With C82G A111U A120G A145C C150U C169U U176C as the variant, how does the reverse-splicing fitness read?
**A.** 0.013

**Q.** With C82G A111U A120G C150A C169A U176A as the variant, how does the reverse-splicing fitness read?
**A.** 0.0207

**Q.** Which reverse-splicing fitness does the source give for C82G A111U A120G C150A C169A U176G here?
**A.** 0.00601

**Q.** With C82G A111U A120G C150A C169A U176C as the variant, how does the reverse-splicing fitness read?
**A.** 0.0211

**Q.** With C82G A111U A120G A145C C150U C169A U176G as the variant, how does the reverse-splicing fitness read?
**A.** 0.00544

**Q.** Which reverse-splicing fitness does the source give for C82G A111U A120G A145C C150U C169A U176C here?
**A.** 0.0083

**Q.** Which reverse-splicing fitness does the source give for C82G A111U A120G A145C C150U C169A U176A here?
**A.** 0.0138

**Q.** With C82G A111U A120G A145G C150U C169U U176A as the variant, how does the reverse-splicing fitness read?
**A.** 0.0169

**Q.** For C82G A111U A120G A145G C150U C169U U176C, which reverse-splicing fitness is on record?
**A.** 0.0151

**Q.** With C82G A111U A120G A145G C150U C169U U176G as the variant, how does the reverse-splicing fitness read?
**A.** 0.00561

**Q.** With C82G A111U A120G A145C C150G C169U as the variant, how does the reverse-splicing fitness read?
**A.** 0.0084

**Q.** For C82G A111U A120G A145C C150G C169G, which reverse-splicing fitness is on record?
**A.** 0.00796

**Q.** For C82G A111U A120G A145C C150G C169A, which reverse-splicing fitness is on record?
**A.** 0.00877

**Q.** With C82G A111U A120G A145U C150A C169U U176C as the variant, how does the reverse-splicing fitness read?
**A.** 0.0142

**Q.** With C82G A111U A120G A145U C150A C169U U176A as the variant, how does the reverse-splicing fitness read?
**A.** 0.0183

**Q.** For C82G A111U A120G A145U C150A C169U U176G, which reverse-splicing fitness is on record?
**A.** 0.00528

**Q.** For C82G A111U A120C C169A U176C, which reverse-splicing fitness is on record?
**A.** 0.0224

**Q.** Which reverse-splicing fitness does the source give for C82G A111U A120C C169A U176G here?
**A.** 0.00684

**Q.** Which reverse-splicing fitness does the source give for C82G A111U A120C C169A U176A here?
**A.** 0.0193

**Q.** For C82G A111U A120G A145C C150U U176C, which reverse-splicing fitness is on record?
**A.** 0.012

**Q.** For C82G A111U A120G A145C C150U U176A, which reverse-splicing fitness is on record?
**A.** 0.00941

**Q.** Which reverse-splicing fitness does the source give for C82G A111U A120G A145C C150U U176G here?
**A.** 0.00601

**Q.** Which reverse-splicing fitness does the source give for C82G A111U A120G A145U C150G U176G here?
**A.** 0.0039

**Q.** With C82G A111U A120G A145U C150G U176A as the variant, how does the reverse-splicing fitness read?
**A.** 0.00634

**Q.** For C82G A111U A120G A145U C150G U176C, which reverse-splicing fitness is on record?
**A.** 0.0104

**Q.** For C82G A111U A120G A145U U176A, which reverse-splicing fitness is on record?
**A.** 0.0138

**Q.** With C82G A111U A120G A145U U176G as the variant, how does the reverse-splicing fitness read?
**A.** 0.00635

**Q.** Which reverse-splicing fitness does the source give for C82G A111U A120G A145U U176C here?
**A.** 0.0193

**Q.** With C82G A111U A120G C150G C169A as the variant, how does the reverse-splicing fitness read?
**A.** 0.00883

**Q.** For C82G A111U A120G C150G C169G, which reverse-splicing fitness is on record?
**A.** 0.00797

**Q.** Which reverse-splicing fitness does the source give for C82G A111U A120G C150G C169U here?
**A.** 0.00861

**Q.** For C82G A111U A120G A145U C169G U176G, which reverse-splicing fitness is on record?
**A.** 0.00405

**Q.** For C82G A111U A120G A145U C169G U176C, which reverse-splicing fitness is on record?
**A.** 0.0162

**Q.** With C82G A111U A120G A145U C169G U176A as the variant, how does the reverse-splicing fitness read?
**A.** 0.0119

**Q.** Which reverse-splicing fitness does the source give for C82G A111U A120G A145C C150U C169G here?
**A.** 0.00915

**Q.** With C82G A111U A120G A145C C150U C169A as the variant, how does the reverse-splicing fitness read?
**A.** 0.00886

**Q.** For C82G A111U A120G A145C C150U C169U, which reverse-splicing fitness is on record?
**A.** 0.00738

**Q.** With C82G A111U A120C C150U C169G as the variant, how does the reverse-splicing fitness read?
**A.** 0.00965

**Q.** With C82G A111U A120C C150U C169U as the variant, how does the reverse-splicing fitness read?
**A.** 0.0125

**Q.** For C82G A111U A120C C150U C169A, which reverse-splicing fitness is on record?
**A.** 0.0105

**Q.** For C82G A111U A120G A145C C150A C169G, which reverse-splicing fitness is on record?
**A.** 0.00827

**Q.** For C82G A111U A120G A145C C150A C169U, which reverse-splicing fitness is on record?
**A.** 0.00694

**Q.** Which reverse-splicing fitness does the source give for C82G A111U A120G A145C C150A C169A here?
**A.** 0.00828

**Q.** For C82G A111U A120C C150G C169A U176C, which reverse-splicing fitness is on record?
**A.** 0.0141

**Q.** For C82G A111U A120C C150G C169A U176A, which reverse-splicing fitness is on record?
**A.** 0.0137

**Q.** With C82G A111U A120C C150G C169A U176G as the variant, how does the reverse-splicing fitness read?
**A.** 0.00844

**Q.** With C82G A111U A120G as the variant, how does the reverse-splicing fitness read?
**A.** 0.0168

**Q.** With C82G A111U A120G A145G C150G C169U U176A as the variant, how does the reverse-splicing fitness read?
**A.** 0.0116

**Q.** Which reverse-splicing fitness does the source give for C82G A111U A120G A145G C150G C169U U176C here?
**A.** 0.0128

**Q.** Which reverse-splicing fitness does the source give for C82G A111U A120G A145G C150G C169U U176G here?
**A.** 0.00754

**Q.** With C82G A111U A120G A145C C150G C169U U176A as the variant, how does the reverse-splicing fitness read?
**A.** 0.0121

**Q.** Which reverse-splicing fitness does the source give for C82G A111U A120G A145C C150G C169U U176G here?
**A.** 0.00569

**Q.** Which reverse-splicing fitness does the source give for C82G A111U A120G A145C C150G C169U U176C here?
**A.** 0.0123

**Q.** With C82G A111U A120G A145G C150G C169A U176G as the variant, how does the reverse-splicing fitness read?
**A.** 0.00831

**Q.** With C82G A111U A120G A145G C150G C169A U176A as the variant, how does the reverse-splicing fitness read?
**A.** 0.0133

**Q.** Which reverse-splicing fitness does the source give for C82G A111U A120G A145G C150G C169A U176C here?
**A.** 0.0126

**Q.** With C82G A111U A120G C150U U176G as the variant, how does the reverse-splicing fitness read?
**A.** 0.011

**Q.** For C82G A111U A120G C150U U176C, which reverse-splicing fitness is on record?
**A.** 0.0178

**Q.** For C82G A111U A120G C150U U176A, which reverse-splicing fitness is on record?
**A.** 0.0111

**Q.** With C82G A111U A120G A145G C150A C169A U176C as the variant, how does the reverse-splicing fitness read?
**A.** 0.0216

**Q.** With C82G A111U A120G A145G C150A C169A U176G as the variant, how does the reverse-splicing fitness read?
**A.** 0.00669

**Q.** Which reverse-splicing fitness does the source give for C82G A111U A120G A145G C150A C169A U176A here?
**A.** 0.0195

**Q.** With C82G A111U A120G A145C C169U U176G as the variant, how does the reverse-splicing fitness read?
**A.** 0.00479

**Q.** Which reverse-splicing fitness does the source give for C82G A111U A120G A145C C169U U176A here?
**A.** 0.0203

**Q.** Which reverse-splicing fitness does the source give for C82G A111U A120G A145C C169U U176C here?
**A.** 0.0168

**Q.** For C82G A111U A120G A145C C169G U176C, which reverse-splicing fitness is on record?
**A.** 0.0172

**Q.** For C82G A111U A120G A145C C169G U176G, which reverse-splicing fitness is on record?
**A.** 0.00404

**Q.** Which reverse-splicing fitness does the source give for C82G A111U A120G A145C C169G U176A here?
**A.** 0.0245

**Q.** Which reverse-splicing fitness does the source give for C82G A111U A120C C150A here?
**A.** 0.0117

**Q.** Which reverse-splicing fitness does the source give for C82G A111U A120C C150G here?
**A.** 0.00875

**Q.** For C82G A111U A120C C150U, which reverse-splicing fitness is on record?
**A.** 0.0329

**Q.** For C82G A111U A120G A145C C150A, which reverse-splicing fitness is on record?
**A.** 0.00696

**Q.** For C82G A111U A120G A145C C150G, which reverse-splicing fitness is on record?
**A.** 0.00659

**Q.** With C82G A111U A120G A145C C150U as the variant, how does the reverse-splicing fitness read?
**A.** 0.00849

**Q.** Which reverse-splicing fitness does the source give for C82G A111U A120G A145U C150A C169A U176A here?
**A.** 0.0161

**Q.** With C82G A111U A120G A145U C150A C169A U176G as the variant, how does the reverse-splicing fitness read?
**A.** 0.00527

**Q.** With C82G A111U A120G A145U C150A C169A U176C as the variant, how does the reverse-splicing fitness read?
**A.** 0.0142

**Q.** For C82G A111U A120G A145C C150G C169A U176C, which reverse-splicing fitness is on record?
**A.** 0.0077

**Q.** With C82G A111U A120G A145C C150G C169A U176G as the variant, how does the reverse-splicing fitness read?
**A.** 0.00582

**Q.** With C82G A111U A120G A145C C150G C169A U176A as the variant, how does the reverse-splicing fitness read?
**A.** 0.00745

**Q.** For C82G A111U A120G A145G C150G C169G U176G, which reverse-splicing fitness is on record?
**A.** 0.00621
